Experimental findings from paper PMC3741272, “Identification and Characterization of a Novel aac(6′)-Iag Associated with the bla IMP-1–Integron in a Multidrug-Resistant Pseudomonas aeruginosa” (PLoS ONE, 2013) are described below.

Common to all, as to experiment: purified protein
Holding throughout (assay type): biochemical, Pseudomonas aeruginosa
Common to all, as to conditions: 200 µM acetyl-CoA, 2 mM DTNB, 50 mM phosphate pH 7.0, 37°C

Data set [1] relates to CN[C@@H]1[C@@H](O)[C@@H](O[C@@H]2[C@@H](O)[C@H](O[C@H]3O[C@H](CN)[C@@H](O)[C@H](O)[C@H]3O)[C@@H](N)C[C@H]2NC(=O)[C@@H](O)CN)OC[C@]1(C)O.
For data set [2], the system named is NC[C@H]1O[C@H](O[C@H]2[C@H](O)[C@@H](O[C@H]3O[C@H](CO)[C@@H](O)[C@H](N)[C@H]3O)[C@H](N)C[C@@H]2N)[C@H](O)[C@@H](O)[C@@H]1O.
The subject of data set [3] is NCC[C@H](O)C(=O)N[C@@H]1C[C@H](N)[C@@H](O[C@H]2O[C@H](CN)CC[C@H]2N)[C@H](O)[C@H]1O[C@H]1O[C@H](CO)[C@@H](O)[C@H](N)[C@H]1O.
Data set [4] deals with NC[C@@H]1CC[C@@H](N)[C@@H](O[C@H]2[C@H](O)[C@@H](O[C@H]3O[C@H](CO)[C@@H](O)[C@H](N)[C@H]3O)[C@H](N)C[C@@H]2N)O1.
Data set [5] concerns CN[C@@H]1[C@@H](O)[C@@H](O[C@@H]2[C@@H](O)[C@H](O[C@H]3OC(CN)=CC[C@H]3N)[C@@H](N)C[C@H]2N)OC[C@]1(C)O.
Data set [6] has as its system NCC[C@H](O)C(=O)N[C@@H]1C[C@H](N)[C@@H](O[C@H]2O[C@H](CN)[C@@H](O)[C@H](O)[C@H]2O)[C@H](O)[C@H]1O[C@H]1O[C@H](CO)[C@@H](O)[C@H](N)[C@H]1O.
The test system of data set [7] is NC[C@H]1O[C@H](O[C@H]2[C@H](O)[C@@H](O[C@H]3O[C@H](CO)[C@@H](O)[C@H](N)[C@H]3O)[C@H](N)C[C@@H]2N)[C@H](N)C[C@@H]1O.

Turning to AAC(6′)-Iag (Pseudomonas aeruginosa), the Michaelis constant (Km) (usually the substrate concentration at which the rate is half of its maximum) in data set [1] was 209 ± 88 µM; in data set [2], 52.1 ± 16 µM; in data set [3], 9.9 ± 1.2 µM; in data set [4], 3.03 ± 0.64 µM; in data set [5], 8.81 ± 1.2 µM; in data set [6] it was 189 ± 108 µM. Besides, in data set [7], the Michaelis-Menten constant (Km) came to 3.27 ± 0.76 µM. The kcat (commonly the maximal rate divided by the concentration of active sites) turned out to be 0.10 ± 0.03 s⁻¹ in data set [1]; 0.29 ± 0.06 s⁻¹ in data set [2]; 0.79 ± 0.07 s⁻¹ in data set [3]; 0.194 ± 0.02 s⁻¹ in data set [4]; 0.745 ± 0.08 s⁻¹ in data set [5]; 0.11 ± 0.03 s⁻¹ in data set [6]. In addition, the kcat in data set [7] came to 0.15 ± 0.03 s⁻¹. Also, the catalytic efficiency (kcat/Km) (in general, the turnover number divided by the Michaelis constant) in data set [1] turned out to be 520 M⁻¹ s⁻¹; in data set [2], 5600 M⁻¹ s⁻¹; in data set [3], 80000 M⁻¹ s⁻¹; in data set [4], 64000 M⁻¹ s⁻¹; in data set [5], 85000 M⁻¹ s⁻¹; in data set [6] it was 780 M⁻¹ s⁻¹. The kcat/Km in data set [7] was found to be 46000 M⁻¹ s⁻¹.
